The values below come from patent US20140271648A1 (Janssen / Centocor, published 2014).

In general, Kd refers to the concentration at which binding is half-saturated. Lower therefore signals tighter binding.

Changes are numbered by the printed parent chain.

For assay [1], the target named is T1, human IFNαF (human, UniProt P01568 24-189).
T1 chain: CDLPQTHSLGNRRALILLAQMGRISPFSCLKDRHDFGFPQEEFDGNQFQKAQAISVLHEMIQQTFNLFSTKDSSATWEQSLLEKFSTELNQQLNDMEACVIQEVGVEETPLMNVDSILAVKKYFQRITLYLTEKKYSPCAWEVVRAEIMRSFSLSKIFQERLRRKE
As to the kind of experiment: cell-based or functional assay.

Assay [2] addresses T2, human IFNαJ1 (human, UniProt P01567 24-189). As to the kind of experiment: cell-based or functional assay.
Assay [3] concerns the target T3, human IFNαH2 (human, UniProt P01570 24-189). As to the kind of experiment: cell-based or functional assay.
The target in assay [4] is T4, human IFNω (human, UniProt P05000 24-195). As to the kind of experiment: cell-based or functional assay.
T4 sequence (P05000 24-195 limits assumed): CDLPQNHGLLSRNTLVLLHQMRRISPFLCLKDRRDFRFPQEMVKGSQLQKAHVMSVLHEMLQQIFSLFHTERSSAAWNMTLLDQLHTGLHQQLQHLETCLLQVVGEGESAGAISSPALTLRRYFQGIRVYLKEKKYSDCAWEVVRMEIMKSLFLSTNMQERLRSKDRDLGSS
Assay [5] addresses T5, human IFNαC (human, UniProt P01566 24-189). As to the kind of experiment: cell-based or functional assay.
Assay [6] has as its target T6, human IFNαG (human, UniProt P01569 24-189). As to the kind of experiment: cell-based or functional assay.
For a further assay, the target named is T7, human IFNω T80E variant (human, UniProt P05000 24-195).
T7 construct: Expressed in HEK293F cells; used for the crystal structures; In the Fab357 crystal only residues R22-P39 and L118-L154 were seen (proteolytic cleavage during crystallization); also called IFN-omega (T80E)
T7 sequence (P05000 24-195 T103E limits assumed): as the sequence (P05000 24-195 limits assumed) above, with T80E counted along it
As to the kind of experiment: complex formed, purified by size exclusion and co-crystallized.

Assay [7] has as its target T1, human IFNαF. As to the kind of experiment: SPR (ProteOn); mAb captured on anti-human Fc, IFN as analyte.
Description: (§1) Binding affinities of the antibodies were performed using SPR technology with ProteOn (Bio-Rad Hercules, Calif.). Goat anti-human Fc antibodies (manufacture) were amine-coupled to GLC chips (Bio-Rad Hercules, Calif.) using standard NHS/EDC chemistry as manufacture recommended. The anti-IFN mAbs were then loaded on the antibody coupled chip for 2 minutes at the flow rate of 30 μl/min. […] The chips were generated with 100 mM phosphoric acid in each direction between running different antigens. Data analysis was performed using ProteOn manager (Bio-Rad Hercules, Calif.). The sensorgrams were grouped by mAbs. After applying alignment and reference correction (using either interspot or blank channel referencing), the SPR data were fit globally to Langmuir model for kinetic rate constants (KD=koff/kₒₙ, where KD=equilibrium dissociation constant, kₒₙ=association rate constant, and koff=dissociation rate constant).
For assay [8], the target named is T2, human IFNαJ1. The description is as above.
Description: as §1
Assay [9] deals with T3, human IFNαH2. The description is as above.
Description: as §1
Assay [10] has as its target T4, human IFNω. Described as above.
Description: as §1
The target in assay [11] is T8, human IFNαWA (human, UniProt P05015 24-189).
T8 construct: also called Alpha WA (alpha 16)
The description is as above.
Description: as §1

Assay [12] concerns the target T9, human IFNαK (human, UniProt P05013 24-189).
T9 construct: also called Alpha K (alpha 6); IFNα6
The description is as above.
Description: as §1

Assay [13] addresses T5, human IFNαC. Described as above.
Description: as §1
For assay [14], the target named is T6, human IFNαG. The description is as above.
Description: as §1
In a further assay the target is T10, human IFNαD (human, UniProt A0A087WWS6 25-190).
T10 construct: also called Alpha D (alpha 1); IFNα1
T10 chain: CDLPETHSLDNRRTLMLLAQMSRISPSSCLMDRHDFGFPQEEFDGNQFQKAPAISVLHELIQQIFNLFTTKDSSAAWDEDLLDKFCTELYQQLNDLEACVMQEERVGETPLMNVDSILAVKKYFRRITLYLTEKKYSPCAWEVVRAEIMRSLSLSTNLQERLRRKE
The assay is described as above.

For a further assay, the target named is T11, human IFNβ (human, UniProt P01574 22-187).
T11 construct: also called interferon-β
T11 sequence (P01574 22-187 limits assumed): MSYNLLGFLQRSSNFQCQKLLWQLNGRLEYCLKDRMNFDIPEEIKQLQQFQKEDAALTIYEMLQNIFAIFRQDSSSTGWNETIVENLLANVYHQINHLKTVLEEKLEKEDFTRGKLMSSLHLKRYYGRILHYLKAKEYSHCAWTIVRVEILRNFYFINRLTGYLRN
The assay is described as above.

Assay [15] addresses T8, human IFNαWA. As to the kind of experiment: cell-based or functional assay.
The target in assay [16] is T9, human IFNαK. As to the kind of experiment: cell-based or functional assay.

T6 sequence (P01569 24-189): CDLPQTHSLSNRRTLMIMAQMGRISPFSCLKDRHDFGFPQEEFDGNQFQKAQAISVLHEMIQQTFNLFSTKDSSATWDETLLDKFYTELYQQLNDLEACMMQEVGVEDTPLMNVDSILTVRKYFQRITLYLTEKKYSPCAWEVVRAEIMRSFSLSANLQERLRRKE
T2 sequence (P01567 24-189): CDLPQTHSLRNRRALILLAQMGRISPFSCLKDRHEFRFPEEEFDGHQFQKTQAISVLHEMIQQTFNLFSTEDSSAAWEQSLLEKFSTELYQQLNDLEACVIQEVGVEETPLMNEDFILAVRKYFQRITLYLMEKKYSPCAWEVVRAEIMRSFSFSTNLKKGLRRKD
T9 sequence (P05013 24-189): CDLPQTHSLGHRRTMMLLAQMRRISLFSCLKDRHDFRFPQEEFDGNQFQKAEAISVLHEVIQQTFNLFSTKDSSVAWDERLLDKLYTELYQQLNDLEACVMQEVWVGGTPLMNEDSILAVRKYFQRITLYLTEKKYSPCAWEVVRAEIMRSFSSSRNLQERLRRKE
T5 sequence (P01566 24-189): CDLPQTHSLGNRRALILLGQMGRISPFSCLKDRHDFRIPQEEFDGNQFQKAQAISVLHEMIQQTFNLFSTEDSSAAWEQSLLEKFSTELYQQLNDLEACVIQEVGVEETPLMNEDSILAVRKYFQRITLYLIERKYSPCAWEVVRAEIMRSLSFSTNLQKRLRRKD
T3 sequence (P01570 24-189): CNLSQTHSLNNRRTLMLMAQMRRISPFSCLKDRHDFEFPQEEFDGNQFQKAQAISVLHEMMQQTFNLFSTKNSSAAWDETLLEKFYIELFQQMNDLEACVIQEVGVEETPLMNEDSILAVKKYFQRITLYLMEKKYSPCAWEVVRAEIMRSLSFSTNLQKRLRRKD
Description for human IFNαD: as §1
Description for human IFNβ: as §1

B1: C2595 (antibody, V domains shown)
VH: EVQLQQSGGDLVKPGGSLKLSCAASGFTFSSYGMSWVRQTPDKRLDWVSIITSGGSYTYYPDSVKGRFTISRDNAKNTLYLQMSSLKSEDTAMYYCARHAEGGGNYDYAMDYWGQGTSVTVSS
VL: DIVMTQAAFSNPVTLGTSASISCRSSKSLLHSNGITYLYWYLQKPGQSPQLLIYQMSNLASGVPDRFSSSGSGIDFTLRISRVEAEDVGAYYCAQNLELPFTFGSGTKLEIK
On to B1, for which the “IC50, ISRE reporter gene assay” value with human IFNαF [1] was 2.6 nM; in the assay with human IFNαJ1 [2] it was 1.4 nM; with human IFNαH2 [3], 20.3 nM; with human IFNω [4], 0.9 nM; in the assay with human IFNαC [5], 1.5 nM; with human IFNαG [6], 2.6 nM.

B2: Fab357 (Fab, V domains shown)
VH: B1 VH
VL: B1 VL
notes: also called Fab of C2595
As for B2, in the assay with human IFNω T80E variant, the binding result was “binds”.

B3: M3239 (antibody, human IgG1, V domains shown)
VH: B1 VH
VL: B1 VL
Turning to B3, the Kd in the assay with human IFNαF [7] was found to be 15.1 nM; with human IFNαJ1 [8], 4.3 nM; with human IFNαH2 [9] it was 61.6 nM; with human IFNω [10] it was 4.5 nM; with human IFNαC [13], 1.3 nM; with human IFNαG [14], 10.3 nM. The binding result with human IFNαWA [11], with human IFNαK [12], with human IFNαD and with human IFNβ was “no binding (tested: antigen up to 100 nM)” each time.

B4: IFWM43 (antibody, V domains shown)
VH: QVQLVQSGAEVKKPGSSVKVSCKASGGTFSSYAISWVRQAPGQGLEWMGGIIPIFGTANYAQKFQGRVTITADESTSTAYMELSSLRSEDTAVYYCARDSWGSYYAALDYWGQGTLVTVSS
VL: not shown
notes: Fab from a pIX phage display library, converted to human IgG1 mAb; also called anti IFNα/ω mAb M43
Take B4: the Kd with human IFNαF [7] amounted to 0.9 nM; with human IFNαJ1 [8], 0.4 nM; with human IFNαH2 [9], 0.6 nM; with human IFNω [10] it was 0.3 nM; with human IFNαWA [11] it was 0.6 nM; in the assay with human IFNαK [12] it was 0.3 nM. In addition, the Kd stood at 0.4 nM with human IFNαC [13] and 0.6 nM with human IFNαG [14]. Also, the binding result with human IFNαD is on record as “no binding (tested: antigen up to 100 nM)”. The “IC50, ISRE reporter gene assay” value in the assay with human IFNαF [1] came to 3.7 nM; with human IFNαJ1 [2], 1 nM; with human IFNαH2 [3] it was 51 nM; with human IFNω [4] it was 18.5 nM; with human IFNαWA [15], 9.2 nM; with human IFNαK [16], 10.4 nM. For the same molecule, the figures for the “IC50, ISRE reporter gene assay” value with human IFNαC [5] and with human IFNαG [6] were 14.9 nM and 5.3 nM, respectively.

B5: IFWM88 (antibody, V domains shown)
VH: B4 VH with D99H, S100L, W101E, G102Y, S103A, Y104F, Y105P, A106D, A107K, L108F
VL: not shown
notes: Fab from a pIX phage display library, converted to human IgG1 mAb
Take B5: the Kd in the assay with human IFNαF [7] worked out at 1 nM; with human IFNαJ1 [8], 4.5 nM; with human IFNαH2 [9], 5.5 nM; in the assay with human IFNω [10], 53 nM; with human IFNαWA [11], 97.3 nM; with human IFNαC [13], 3.2 nM. Also, the equilibrium dissociation constant (Kd) in the assay with human IFNαG [14] turned out to be 0.8 nM. Moreover, the binding result with human IFNαD and with human IFNβ was “no binding (tested: antigen up to 100 nM)” throughout. Besides, the “IC50, ISRE reporter gene assay” value in the assay with human IFNαF [1] is 24.6 nM; with human IFNαJ1 [2], 21.9 nM; with human IFNαC [5] it was 136 nM; in the assay with human IFNαG [6], 23.4 nM.

B6: FabM43 (Fab, V domains shown)
VH: B4 VH
VL: not shown
notes: His-tagged Fab, IgG1/κ isotype, expressed in HEK293F cells; also called Fab of IFWM43; His-tagged FabM43
Regarding B6, in the assay with human IFNω T80E variant, the binding result is reported as “binds”.
